Laboratory results: publication PMC8007570

B1: FAM 40-mer dsDNA (dsDNA)
DNA 1: GTGTTCGGACTCTGCCTCAAGACGGTAGTCAACGTGCTTG
DNA 2: CAAGCACGTTGACTACCGTCTTGAGGCAGAGTCCGAACAC

Experiments:
Pf MRNBD Y199C = Pf MRNBD Y199C (Pyrococcus furiosus, UniProt Q8U1N9;P58301 1-426;1-195+709-882, Y199C;internal_change); assay: fluorescence polarization; 1 mM MnCl2, 0.1 mM EDTA, no ATP/Mg2+; FP: 25 nM DNA, 50 mM HEPES, 100 mM NaCl, 1 mM MnCl2, 0.1 mM EDTA, 1% glycerol, 1 mM TCEP, 0.1% PEG-6000, pH 7, 15 min room temperature; NMR at 50 C
[1] = target: Pf MRNBD wild type (Mre11 + Rad50 NBD) (Pyrococcus furiosus, UniProt Q8U1N9;P58301 1-426;1-195+709-882, internal_change); assay: as above

| Binder | Kd (Pf MRNBD Y199C) | Kd [1] |
| --- | --- | --- |
| B1 | 2500 nM | 2000 nM |
| GTGTTCGGACTCTGCCTCAAGACGGTAGTCAACGTGCTTG (ssDNA) [FAM 40-mer ssDNA] | 350 nM | 310 nM |
